What was measured:
Assay in all cases: inhibition ELISA: serum preincubated with soluble peptide, then preS1 (94-117) coated plate
[1] = biological target: IgG anti-preS1 (94-117) in serum from a HBeAg+ chronic patient (FIG. 7)
[2] = biological target: IgG anti-preS1 (94-117) in serum of HBeAg+ patient with acute resolving HB-infection (FIG. 5b)
[3] = biological target: IgG anti-preS1 (94-117) in serum of HBeAg+ patient with acute resolving HB-infection (FIG. 6a)
[4] = biological target: IgG anti-preS1 (94-117) in serum of HBeAg+ patient with acute resolving HB-infection (FIG. 6b)
[5] = biological target: IgG anti-preS1 (94-117) in serum of one HBeAg+ patient with chronic HBV-infection who later spontaneously seroconverted to anti-HBe (FIG. 5a)

Measured: percent inhibition

PASTNRQSGRQPTPISPPLRDSHP [preS1#94-117 peptide (HBV subtypes adw, adw2 and two of three adr subtypes)]
100%: all assays above

Reference: patent US8076085
